These results are taken from article PMC6327505, “Adaption to glucose limitation is modulated by the pleotropic regulator CcpA, independent of selection pressure strength”.

This series concerns the target T1, CcpA-Ile19 (evolved, 445C1) (Lactococcus lactis MG1363 (evolved …, UniProt A2RJC5 1-332, M19I)).
T1 sequence: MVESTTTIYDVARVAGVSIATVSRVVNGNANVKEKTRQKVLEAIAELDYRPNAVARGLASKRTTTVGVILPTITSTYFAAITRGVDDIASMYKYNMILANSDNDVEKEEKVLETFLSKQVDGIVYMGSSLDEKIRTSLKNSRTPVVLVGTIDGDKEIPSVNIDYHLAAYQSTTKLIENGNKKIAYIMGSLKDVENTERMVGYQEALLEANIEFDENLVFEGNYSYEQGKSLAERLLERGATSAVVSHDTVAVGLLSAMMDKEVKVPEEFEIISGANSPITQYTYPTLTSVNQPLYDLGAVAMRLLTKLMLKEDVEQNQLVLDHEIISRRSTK
Briefly: EMSA; 100-800 nM CcpA, 4 nM DNA; affinity increased vs Met19, least pronounced; EMSA: 20 mM Tris-HCl pH 8, 100 mM KCl, 10 mM MgCl2, 1 mM EDTA, 1 mM DTT, 5% glycerol, 40 ug/ml BSA, 4 nM Cy3-DNA, 30 C 20 min; 7.5% native PAGE in TBE. Particulars: protein: recombinant; tags: N-terminal 6xHis (pQE30); chain copies: 2; label: 5'-Cy3 on (+) strand; blunt.

B1: mtlD cre (dsDNA)
DNA 1: ACCACAATGTAAAAGCTTACAATTGCT
DNA 2: AGCAATTGTAAGCTTTTACATTGTGGT
On to B1, for which the binding result is recorded as “binds”.
